{"source": "paper PMC8831599", "about": "“Defining molecular glues with a dual-nanobody cannabidiol sensor” (Nature Communications, 2022)", "key": {"[1]": {"target": "Biotin-DB21 (biotinylated Avi-DB21)", "test": "BLI; biotinylated DB21 on streptavidin probe, tag-free CA14 as analyte, no CBD; 30 °C; 25 mM HEPES pH 7.4, 100 mM NaCl, no TCEP, 0.1% Tween-20, 0.05 mg/mL BSA; kinetic and steady-state analysis differ"}, "[2]": {"target": "Biotin-DB21 (biotinylated Avi-DB21)", "test": "AlphaScreen or HTRF; competition without CBD: 200 nM His-CA14 on acceptor beads, 67 nM biotinylated DB21 (wild type or mutant) on streptavidin donor beads, label-free protein titrated; 25 mM HEPES pH 7.4, 100 mM NaCl, no TCEP, 0.1% Tween-20, 0.05 mg/mL BSA"}}, "data": [{"binder": "CA14 anchor binder nanobody, tag-free (VHH) VHH: EVQLQASGGGFVQPGGSLRLSCAASGSTSRQYDMGWFRQAPGKEREFVSAISSNQDQPPYYADSVKGRFTISRDNSKNTVYLQMNSLRAEDTATYYCAFKQHHANGAYWGQGTQVTVSS", "values": [{"measurement": "Kd", "setting": "[1]", "result": 19, "unit": "µM"}, {"measurement": "Kd determined by kinetics", "setting": "[1]", "result": 3, "unit": "µM"}, {"measurement": "IC50", "setting": "[2]", "result": 20, "unit": "µM"}]}]}
